We go through 12 substances from patent US20140175018A1.

Read-outs that look alike come from different tables or passages of the source.

In assay [1] the target is T1, chemokine (C-X-C motif) receptor 1 (CXCR1) (human) (UniProt P25024).
T1 sequence (looked up): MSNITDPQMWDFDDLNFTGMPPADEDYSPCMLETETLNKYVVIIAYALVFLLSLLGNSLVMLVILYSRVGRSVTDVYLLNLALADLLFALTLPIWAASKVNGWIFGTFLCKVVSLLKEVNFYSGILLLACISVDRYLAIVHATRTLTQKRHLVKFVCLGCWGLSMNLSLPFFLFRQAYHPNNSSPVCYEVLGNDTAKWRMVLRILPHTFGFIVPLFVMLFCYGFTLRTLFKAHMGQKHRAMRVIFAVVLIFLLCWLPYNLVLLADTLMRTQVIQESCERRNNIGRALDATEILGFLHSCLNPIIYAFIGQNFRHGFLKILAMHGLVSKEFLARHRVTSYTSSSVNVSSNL
The experiment in a line: cell-based or functional assay.

For assay [2], the target named is chemokine (C-X-C motif) receptor 3 (CXCR3) (human) (UniProt P49682). The experiment in a line: cell-based or functional assay.
The target in assay [3] is chemokine (C-C motif) receptor 3 (CCR3) (human) (UniProt P51677). The assay can be described thus: blood passed through chemokine-coupled column; flow cytometry before and after. In general terms: Flow cytometry measures light scatter and fluorescence of single cells or particles in a stream.
Assay [4] shares this target. The assay can be described thus: blood passed through magnetic column with RANTES-coupled MACS beads; flow cytometry before and after.
Assay [5] concerns the target chemokine (C-X-C motif) receptor 4 (CXCR4) (human) (UniProt P61073). The assay can be described thus: cell-based or functional assay.
In assay [6] the target is T2, chemokine (C-C motif) receptor 4 (CCR4) (human) (UniProt P51679).
T2 sequence (looked up): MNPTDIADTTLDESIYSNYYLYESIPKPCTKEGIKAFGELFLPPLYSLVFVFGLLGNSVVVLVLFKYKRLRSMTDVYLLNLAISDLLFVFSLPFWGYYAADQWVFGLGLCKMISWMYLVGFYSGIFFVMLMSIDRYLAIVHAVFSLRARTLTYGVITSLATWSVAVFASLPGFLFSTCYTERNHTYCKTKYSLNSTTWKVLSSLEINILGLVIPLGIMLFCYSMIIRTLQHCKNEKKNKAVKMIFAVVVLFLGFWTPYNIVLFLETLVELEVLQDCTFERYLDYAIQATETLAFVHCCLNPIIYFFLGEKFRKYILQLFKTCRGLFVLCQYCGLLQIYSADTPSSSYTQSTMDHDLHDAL
The assay can be described thus: cell-based or functional assay.

Assay [7] concerns the target T1, chemokine (C-X-C motif) receptor 1 (CXCR1) (human). The assay can be described thus: cell-based or functional assay. The source holds these as a separate data set.
Assay [8] addresses T3, chemokine (C-C motif) receptor 6 (CCR6) (human) (UniProt P51684).
T3 sequence (looked up): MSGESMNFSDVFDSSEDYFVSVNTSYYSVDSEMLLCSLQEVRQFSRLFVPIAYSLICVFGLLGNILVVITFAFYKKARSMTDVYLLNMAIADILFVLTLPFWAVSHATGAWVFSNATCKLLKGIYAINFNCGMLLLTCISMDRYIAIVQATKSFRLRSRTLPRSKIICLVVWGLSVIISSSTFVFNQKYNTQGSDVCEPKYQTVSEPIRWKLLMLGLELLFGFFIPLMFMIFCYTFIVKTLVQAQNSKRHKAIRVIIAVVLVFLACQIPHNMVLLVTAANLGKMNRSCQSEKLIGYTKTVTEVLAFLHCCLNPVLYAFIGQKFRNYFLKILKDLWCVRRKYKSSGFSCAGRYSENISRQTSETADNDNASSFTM
The experiment in a line: cell-based or functional assay.

In assay [9] the target is chemokine (C-C motif) receptor 7 (CCR7) (human) (UniProt P32248). The experiment in a line: cell-based or functional assay.
Assay [10] addresses chemokine (C-C motif) receptor 9 (CCR9) (human) (UniProt P51686). The assay can be described thus: cell-based or functional assay.
Assay [11] has the same target. The experiment in a line: cell-based or functional assay. The source holds these as a separate data set.
Assay [12] concerns the target chemokine (C-C motif) receptor 3 (CCR3) (human) (UniProt P51677). The assay can be described thus: cell-based or functional assay.

Chain of chemokine (C-C motif) receptor 3 (CCR3) (human) (P51677 whole entry): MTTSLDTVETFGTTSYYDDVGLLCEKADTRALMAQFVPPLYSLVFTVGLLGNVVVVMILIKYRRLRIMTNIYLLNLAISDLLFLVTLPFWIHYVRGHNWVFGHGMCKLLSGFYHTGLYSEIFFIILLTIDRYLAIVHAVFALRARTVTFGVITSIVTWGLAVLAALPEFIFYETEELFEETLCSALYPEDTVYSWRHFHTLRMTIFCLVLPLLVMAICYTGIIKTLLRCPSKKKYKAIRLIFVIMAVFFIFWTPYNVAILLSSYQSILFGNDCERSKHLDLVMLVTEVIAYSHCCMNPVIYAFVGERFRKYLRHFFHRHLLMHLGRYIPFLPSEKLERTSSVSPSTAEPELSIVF
Chain of recombinant native IL-8 (P10145 28-99 limits assumed): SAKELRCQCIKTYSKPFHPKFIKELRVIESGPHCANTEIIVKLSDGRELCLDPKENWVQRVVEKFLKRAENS
Chain of chemokine (C-C motif) receptor 9 (CCR9) (human) (P51686 whole entry): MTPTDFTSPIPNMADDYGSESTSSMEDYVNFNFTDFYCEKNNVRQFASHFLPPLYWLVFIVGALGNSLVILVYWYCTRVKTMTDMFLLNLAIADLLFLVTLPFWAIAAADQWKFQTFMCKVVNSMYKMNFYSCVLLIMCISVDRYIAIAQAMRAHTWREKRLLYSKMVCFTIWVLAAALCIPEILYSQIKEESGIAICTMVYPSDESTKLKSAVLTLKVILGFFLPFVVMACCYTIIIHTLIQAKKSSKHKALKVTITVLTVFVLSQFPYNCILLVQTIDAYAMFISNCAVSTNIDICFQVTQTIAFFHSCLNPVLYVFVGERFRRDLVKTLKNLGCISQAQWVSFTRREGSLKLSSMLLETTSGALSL
Chain of chemokine (C-X-C motif) receptor 3 (CXCR3) (human) (P49682 whole entry): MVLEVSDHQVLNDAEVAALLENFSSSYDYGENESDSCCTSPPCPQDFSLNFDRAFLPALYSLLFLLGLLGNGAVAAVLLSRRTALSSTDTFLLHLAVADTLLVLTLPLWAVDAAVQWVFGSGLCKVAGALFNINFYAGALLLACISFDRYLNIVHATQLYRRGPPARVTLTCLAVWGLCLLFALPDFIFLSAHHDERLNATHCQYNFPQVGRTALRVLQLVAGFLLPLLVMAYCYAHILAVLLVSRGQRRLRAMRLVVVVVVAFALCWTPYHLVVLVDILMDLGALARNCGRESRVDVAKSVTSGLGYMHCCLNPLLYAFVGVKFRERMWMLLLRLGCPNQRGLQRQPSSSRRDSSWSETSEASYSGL
Chain of UniProt Q92583 (Q92583 other isoform, or with tags, fused parts or gaps limits assumed): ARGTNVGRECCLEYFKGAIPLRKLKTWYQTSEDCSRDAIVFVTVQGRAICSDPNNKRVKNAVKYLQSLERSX
Chain of UniProt P10145 (P10145 other isoform, or with tags, fused parts or gaps limits assumed): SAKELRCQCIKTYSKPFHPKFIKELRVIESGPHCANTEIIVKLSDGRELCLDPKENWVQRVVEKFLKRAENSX
Chain of recombinant native MIP-3a (P78556 27-96 limits assumed): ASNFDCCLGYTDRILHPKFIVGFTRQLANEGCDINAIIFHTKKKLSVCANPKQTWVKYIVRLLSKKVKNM
Chain of chemokine (C-X-C motif) receptor 4 (CXCR4) (human) (P61073 whole entry): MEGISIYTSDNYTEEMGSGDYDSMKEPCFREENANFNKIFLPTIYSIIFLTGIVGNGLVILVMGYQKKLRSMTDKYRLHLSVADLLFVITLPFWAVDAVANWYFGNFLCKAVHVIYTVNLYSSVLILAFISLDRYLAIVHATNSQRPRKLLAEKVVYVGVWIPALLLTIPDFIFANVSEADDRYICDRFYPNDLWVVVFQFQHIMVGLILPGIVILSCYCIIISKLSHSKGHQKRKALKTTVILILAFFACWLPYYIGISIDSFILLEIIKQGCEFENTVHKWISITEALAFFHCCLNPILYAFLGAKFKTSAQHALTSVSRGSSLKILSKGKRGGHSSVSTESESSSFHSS
Chain of chemokine (C-C motif) receptor 7 (CCR7) (human) (P32248 25-378): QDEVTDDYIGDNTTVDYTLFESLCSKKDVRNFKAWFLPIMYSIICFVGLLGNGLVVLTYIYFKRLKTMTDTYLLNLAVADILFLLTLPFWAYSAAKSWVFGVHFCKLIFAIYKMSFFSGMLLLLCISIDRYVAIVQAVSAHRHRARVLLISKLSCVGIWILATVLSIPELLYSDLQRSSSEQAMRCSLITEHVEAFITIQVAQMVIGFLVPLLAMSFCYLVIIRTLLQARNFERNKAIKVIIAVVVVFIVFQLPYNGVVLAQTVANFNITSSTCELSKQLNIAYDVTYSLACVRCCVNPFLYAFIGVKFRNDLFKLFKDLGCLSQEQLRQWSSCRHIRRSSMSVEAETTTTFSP
Chain of recombinant native TARC (Q92583 24-94 limits assumed): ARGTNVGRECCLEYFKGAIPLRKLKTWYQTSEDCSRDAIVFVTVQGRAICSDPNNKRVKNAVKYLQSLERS

In assay [1], “biotinIL-8 (6-78): IL-8 (6-78) derivatised at Lys(78) with PEG-Biotin (from UniProt P10145 28-99) (ligand)” registered an EC50 (agonist activity, Aequorin assay) of 6.1 nM. Substance “biotinIP-10 (CXCL10): IP-10 derivatised with Biotin at an additional C-terminal Lysine after a PEG spacer (from UniProt P02778 22-98) (ligand)” had an EC50 (agonist activity, Aequorin assay) in assay [2] of 8.7 nM. Regarding “biotinRANTES (CCL5): RANTES derivatised at Lys(67) with Biotin (from UniProt P13501 24-91) (ligand)”, the percent reduction of chemokine receptor-expressing cells (CCR1, 3 or 5, not told apart) in [3] and in assay [4] was 20% each time. Take “biotinSDF-1a (CXCL12): SDF-1a derivatised at Lys(64) with Biotin (from UniProt P48061 22-67) (ligand)”: the EC50 (agonist activity, Aequorin assay) in assay [5] was 17.3 nM.

In turn, “biotinTARC (CCL17): TARC derivatised at Lys(72) with PEG-Biotin (from UniProt Q92583 24-94) (ligand)” yielded an EC50 (agonist activity, Aequorin assay) in assay [6] of 3.1 nM. Take “recombinant native IL-8 (from UniProt P10145 28-99) (ligand)”: the EC50 (agonist activity, Aequorin assay) in assay [1] came to 4.2 nM; in assay [7], 4.1 nM. With “recombinant native IP-10 (from UniProt P02778 22-98) (ligand)”, the EC50 (agonist activity, Aequorin assay) in assay [2] was 4.4 nM. For the substance “recombinant native MIP-3a (from UniProt P78556 27-96) (ligand)”, the EC50 (agonist activity, Aequorin assay) in assay [8] turned out to be 1 nM. Consider “recombinant native MIP-3b (from UniProt Q99731 22-98) (ligand)”, for which the EC50 (agonist activity, Aequorin assay) in assay [9] was 1.6 nM. Substance “recombinant native TARC (from UniProt Q92583 24-94) (ligand)” yielded an EC50 (agonist activity, Aequorin assay) in [6] of 2.6 nM. Turning to “recombinant native TECK (from UniProt O15444 24-150) (ligand)”, the EC50 (agonist activity, Aequorin assay) in [10] and in assay [11] was 67.9 nM throughout. “recombinant native eotaxin (from UniProt P51671 24-97) (ligand)”: the EC50 (agonist, Aequorin assay) in [12] turned out to be 10.7 nM.
